According to PMC12102759:

B1: PEX5 peptide 238-253 (Peroxisomal targeting signal 1 receptor), 16-mer library wild type / PEX14 Pex14 (PEX14 PEX14, residues 16-84) (parent)
chain 1: AQAEQWAAEFIQQQGT
chain 2: TPGSENVLPREPLIATAVKFLQNSRVRQSPLATRRAFLKKKGLTDEEIDMAFQQSGTAADEPSSLGPAT

Variants of: B1
Assay: proteomic peptide phage display deep mutational scan (ProP-PD DMS): M13 P8 16-mer library selected against immobilised GST-tagged bait for four days (rounds), NGS of the eluted pools per day and pseudo-replica
Settings: with PEX14 Pex14 (PEX14 PEX14, residues 16-84); bait immobilised on MaxiSorp plates (10 µg), library pre-cleared on GST, 2 h binding at 4 °C, five washes; one round per day, days 1-4; value from days 2 and 3; keep out of graded; scale: average fractional NGS count over selection days 2 and 3

Variant | screen value
chain 1 AQVEQWAAEFIQQQGT [chain 1 A3V] | 0.000366
chain 1 AQWEQWAAEFIQQQGT [chain 1 A3W] | 0
chain 1 AQYEQWAAEFIQQQGT [chain 1 A3Y] | 0.000443
chain 1 AQAEQWDAEFIQQQGT [chain 1 A7D] | 0
chain 1 AQAEQWFAEFIQQQGT [chain 1 A7F] | 0.000286
chain 1 AQAEQWGAEFIQQQGT [chain 1 A7G] | 0.00166
chain 1 AQAEQWHAEFIQQQGT [chain 1 A7H] | 0.00597
chain 1 AQAEQWIAEFIQQQGT [chain 1 A7I] | 0.000152
chain 1 AQAEQWLAEFIQQQGT [chain 1 A7L] | 0.00129
chain 1 AQAEQWNAEFIQQQGT [chain 1 A7N] | 0
chain 1 AQAEQWRAEFIQQQGT [chain 1 A7R] | 0.00151
chain 1 AQAEQWSAEFIQQQGT [chain 1 A7S] | 0.00111
chain 1 AQAEQWVAEFIQQQGT [chain 1 A7V] | 0
chain 1 AQAEQWYAEFIQQQGT [chain 1 A7Y] | 0.00359
chain 1 AQAEQWADEFIQQQGT [chain 1 A8D] | 0
chain 1 AQAEQWAFEFIQQQGT [chain 1 A8F] | 0.00013
chain 1 AQAEQWAGEFIQQQGT [chain 1 A8G] | 0.00272
chain 1 AQAEQWALEFIQQQGT [chain 1 A8L] | 0.00137
chain 1 AQAEQWAMEFIQQQGT [chain 1 A8M] | 0.0014
chain 1 AQAEQWAPEFIQQQGT [chain 1 A8P] | 0
chain 1 AQAEQWAQEFIQQQGT [chain 1 A8Q] | 0.00013
chain 1 AQAEQWAREFIQQQGT [chain 1 A8R] | 0.000559
chain 1 AQAEQWASEFIQQQGT [chain 1 A8S] | 0.000444
chain 1 AQAEQWAVEFIQQQGT [chain 1 A8V] | 0.00138

Variant | screen value
chain 1 AQAEQWAWEFIQQQGT [chain 1 A8W] | 0.00148
chain 1 AQAAQWAAEFIQQQGT [chain 1 E4A] | 0.000155
chain 1 AQAGQWAAEFIQQQGT [chain 1 E4G] | 0.00183
chain 1 AQAIQWAAEFIQQQGT [chain 1 E4I] | 0.000318
chain 1 AQAKQWAAEFIQQQGT [chain 1 E4K] | 0.00104
chain 1 AQAMQWAAEFIQQQGT [chain 1 E4M] | 0.000893
chain 1 AQAVQWAAEFIQQQGT [chain 1 E4V] | 0
chain 1 AQAWQWAAEFIQQQGT [chain 1 E4W] | 0.00183
chain 1 AQAYQWAAEFIQQQGT [chain 1 E4Y] | 0.000168
chain 1 AQAEQWAAAFIQQQGT [chain 1 E9A] | 0.00516
chain 1 AQAEQWAADFIQQQGT [chain 1 E9D] | 0.00183
chain 1 AQAEQWAAGFIQQQGT [chain 1 E9G] | 0.000159
chain 1 AQAEQWAAHFIQQQGT [chain 1 E9H] | 0.0023
chain 1 AQAEQWAAIFIQQQGT [chain 1 E9I] | 0
chain 1 AQAEQWAAKFIQQQGT [chain 1 E9K] | 0.0012
chain 1 AQAEQWAAMFIQQQGT [chain 1 E9M] | 0.000215
chain 1 AQAEQWAAQFIQQQGT [chain 1 E9Q] | 0.000716
chain 1 AQAEQWAASFIQQQGT [chain 1 E9S] | 0.000566
chain 1 AQAEQWAATFIQQQGT [chain 1 E9T] | 0.00204
chain 1 AQAEQWAAEHIQQQGT [chain 1 F10H] | 0.014
chain 1 AQAEQWAAEIIQQQGT [chain 1 F10I] | 0.000137
chain 1 AQAEQWAAEQIQQQGT [chain 1 F10Q] | 0.000673
chain 1 AQAEQWAAESIQQQGT [chain 1 F10S] | 0.000175
chain 1 AQAEQWAAEWIQQQGT [chain 1 F10W] | 0.00148

Variant | screen value
chain 1 AQAEQWAAEYIQQQGT [chain 1 F10Y] | 0.000488
chain 1 AQAEQWAAEFIQQQDT [chain 1 G15D] | 0.000327
chain 1 AQAEQWAAEFIQQQIT [chain 1 G15I] | 0
chain 1 AQAEQWAAEFIQQQKT [chain 1 G15K] | 0
chain 1 AQAEQWAAEFIQQQRT [chain 1 G15R] | 0.000288
chain 1 AQAEQWAAEFIQQQST [chain 1 G15S] | 0.000212
chain 1 AQAEQWAAEFIQQQVT [chain 1 G15V] | 0.000135
chain 1 AQAEQWAAEFIQQQWT [chain 1 G15W] | 0.000703
chain 1 AQAEQWAAEFIQQQYT [chain 1 G15Y] | 0
chain 1 AQAEQWAAEFDQQQGT [chain 1 I11D] | 0.00263
chain 1 AQAEQWAAEFEQQQGT [chain 1 I11E] | 0.00192
chain 1 AQAEQWAAEFFQQQGT [chain 1 I11F] | 0.000739
chain 1 AQAEQWAAEFGQQQGT [chain 1 I11G] | 0.000289
chain 1 AQAEQWAAEFHQQQGT [chain 1 I11H] | 0.00108
chain 1 AQAEQWAAEFKQQQGT [chain 1 I11K] | 0.000266
chain 1 AQAEQWAAEFPQQQGT [chain 1 I11P] | 0.00284
chain 1 AQAEQWAAEFQQQQGT [chain 1 I11Q] | 0.00134
chain 1 AQAEQWAAEFSQQQGT [chain 1 I11S] | 0.000456
chain 1 AQAEQWAAEFTQQQGT [chain 1 I11T] | 0.000576
chain 1 AQAEQWAAEFVQQQGT [chain 1 I11V] | 0
chain 1 AQAEQWAAEFWQQQGT [chain 1 I11W] | 0
chain 1 AQAEQWAAEFYQQQGT [chain 1 I11Y] | 0.000717
chain 1 AAAEQWAAEFIQQQGT [chain 1 Q2A] | 0
chain 1 AEAEQWAAEFIQQQGT [chain 1 Q2E] | 0

Variant | screen value
chain 1 ANAEQWAAEFIQQQGT [chain 1 Q2N] | 7.71e-05
chain 1 APAEQWAAEFIQQQGT [chain 1 Q2P] | 0.00113
chain 1 ARAEQWAAEFIQQQGT [chain 1 Q2R] | 7.71e-05
chain 1 ASAEQWAAEFIQQQGT [chain 1 Q2S] | 0.000758
chain 1 ATAEQWAAEFIQQQGT [chain 1 Q2T] | 0.000198
chain 1 AQAEAWAAEFIQQQGT [chain 1 Q5A] | 0.000195
chain 1 AQAEEWAAEFIQQQGT [chain 1 Q5E] | 0
chain 1 AQAEFWAAEFIQQQGT [chain 1 Q5F] | 0
chain 1 AQAEHWAAEFIQQQGT [chain 1 Q5H] | 0.000302
chain 1 AQAEIWAAEFIQQQGT [chain 1 Q5I] | 7.71e-05
chain 1 AQAEKWAAEFIQQQGT [chain 1 Q5K] | 0
chain 1 AQAENWAAEFIQQQGT [chain 1 Q5N] | 9.07e-05
chain 1 AQAESWAAEFIQQQGT [chain 1 Q5S] | 0.000207
chain 1 AQAETWAAEFIQQQGT [chain 1 Q5T] | 0.00028
chain 1 AQAEWWAAEFIQQQGT [chain 1 Q5W] | 0
chain 1 AQAEQWAAEFIAQQGT [chain 1 Q12A] | 0
chain 1 AQAEQWAAEFIEQQGT [chain 1 Q12E] | 0
chain 1 AQAEQWAAEFIFQQGT [chain 1 Q12F] | 0.000147
chain 1 AQAEQWAAEFIGQQGT [chain 1 Q12G] | 0.000368
chain 1 AQAEQWAAEFIKQQGT [chain 1 Q12K] | 0.000341
chain 1 AQAEQWAAEFILQQGT [chain 1 Q12L] | 0.000406
chain 1 AQAEQWAAEFIMQQGT [chain 1 Q12M] | 0.00226
